Some targets named below: mutF4/Fmut4; Fwt; mutC4/Cmut4.
What all share (test): ELISA, VHH on coated antibody
In general terms: In an ELISA, binding on a coated surface is turned into a signal by an enzyme label.

B1: VHH clone 8G11 (VHH)
VHH: EVQLVESGGGLVQAGGSLRLSCAASGRTFDIYTMGWFRQVPGKEREFVADIGRAGGTTHYADSVKGRFAISRDNANDAVHLQMNSLKPEDTAVYYCATKVVPRAGRRLLDYDYWGQGTQVTVSS
Take B1: the ELISA OD with mutF4/Fmut4 came out at 0.123 OD; in the experiment with Fwt it was 0.073 OD; with mutC4/Cmut4, 0.054 OD.

B2: VHH clone 8G12 (VHH)
VHH: EVQLVESGGGLVRAGGSLRLSCAASGSIFGTTNMGWYRQAPGTQRDLVATINNGGITNYADSVKGRFTISTDYTKNTVYLQMDRLKPEDTAVYYCNAEYHFRPPSWGQGTQVTVSS
For the molecule B2, the ELISA OD worked out at 0.159 OD with mutF4/Fmut4, 0.063 OD with Fwt and 0.2 OD in the experiment with mutC4/Cmut4.

B3: VHH clone 8B03 (VHH)
VHH: EVQLVESGGGLVQPGGSLRLSCRASGAIFSINHMGWYRQAPGKQRELVATITSGGSTNYADSVKGRFTISRDNAKNTVYLQMNSLKPEDTAVYSCNLDWTTGWGSRRDYWGQGTQVTVSS
Turning to B3, the ELISA OD came to 0.221 OD in the experiment with mutF4/Fmut4, 0.069 OD with Fwt and 0.068 OD with mutC4/Cmut4.

B4: VHH clone 8G1 (VHH)
VHH: QVQLVESGGGLVQPGGSLRLSCRASGAIFSINHMGWYRQAPGKQRELVATITSGGSTNYADSVKGRFTISRDNAKNTVYLQMNSLKPEDTAVYSCNLDWTTGWGSRRDYWGQGTQVTVSS
In the case of B4, the ELISA OD with mutF4/Fmut4 was 0.128 OD; with Fwt, 0.079 OD; in the experiment with mutC4/Cmut4, 0.068 OD.

B5: VHH clone 8GO9 (VHH)
VHH: QVQLVESGGGLVQAGGSLRLSCAASGRTFSRYGMSWFRQAPGKEREFVATISRGGSSTNYADSTKGRFTVSRDNAKNTVVLQMNSLKPEDTAVYYCAADTNWPVGAYEYWGQGTQVTVSS
For B5, the ELISA OD with mutF4/Fmut4 turned out to be 0.153 OD; with Fwt it was 0.114 OD; with mutC4/Cmut4 it was 0.068 OD.

The values are drawn from US20200157248A1.
